The values that follow come from patent US20240092935A1 (BETH ISRAEL DEACONESS MEDICAL CENTER, published 2024).

Assay [1] has as its target T1, A-MUC2 glycopeptide Ac-PT*TTPLK-NH2 (chart ID 1).
T1 peptide: Ac-PT(GalNAc)TTPLK-NH2
In words: Tn glycopeptide microarray probed with biotinylated PNA and Alexa488-streptavidin.

Assay [2] has as its target T2, C-MUC2 glycopeptide Ac-PTTT*PLK-NH2 (chart ID 3).
T2 peptide: Ac-PTTT(GalNAc)PLK-NH2
The description is as above.

Assay [3] concerns the target T3, F-MUC2 glycopeptide Ac-PTT*T*PLK-NH2 (chart ID 6).
T3 construct: also called double-Tn-MUC2; bar label T*T*
T3 peptide: Ac-PTT(GalNAc)T(GalNAc)PLK-NH2
The description is as above.

Assay [4] has as its target T4, D-MUC2 glycopeptide Ac-PT*T*TPLK-NH2 (chart ID 4).
T4 peptide: Ac-PT(GalNAc)T(GalNAc)TPLK-NH2
The description is as above.

The target of assay [5] is T5, B-MUC2 glycopeptide Ac-PTT*TPLK-NH2 (chart ID 2).
T5 peptide: Ac-PTT(GalNAc)TPLK-NH2
Described as above.

The target in assay [6] is T6, Asialo-BSM (desialylated bovine submaxillary mucin) (bovine).
T6 construct: also called desialylated BSM; Asialo-BSM beads
In words: plate binding assay, Asialo-BSM coated on 96-well plate, serial dilution of antibody, fluorescent secondary antibody.

In assay [7] the target is T7, MUC1-1 glycopeptide H2N-TSAPDT*RDAP-NH2 (chart ID 14).
T7 peptide: H-TSAPDT(GalNAc)RDAP-NH2
In words: Tn glycopeptide microarray, Alexa Fluor 488 goat anti-mouse IgM. The protocol: (§1) The Tn glycopeptide microarray was prepared as previously described (25). The Consortium for Functional Glycomics (CFG) glycan microarray version 5.0 was used (www.functionalglycomics.org) (26). […] Slides were washed four times with TSM wash buffer 1 (20 mM Tris-HCl, pH 7.4, 150 mM NaCl, 2 mM CaCl₂), 2 mM MgCl2 and 0.05% Tween-20), and washed four times with TSM wash buffer 2 (20 mM Tris-HCl, pH 7.4, 150 mM NaCl, 2 mM CaCl2) and 2 mM MgCl2). Alexa Fluor® 488-labeled goat anti-human IgG or goat anti-mouse IgM secondary (diluted to 5 μg/ml) were used for detection. After washing as above, slides were washed once in water and dried before being read on a Genepix® 4300A microarray scanner (Molecular Devices). Images were analyzed with quantitation software (GenePix® Pro Microarray Analysis Software Ver. 7, Molecular Devices).

Assay [8] has as its target T8, a-Dystroglycan peptide Ac-PPTTTTKKP-NH2 (chart ID 9).
T8 peptide: Ac-PPTTTTKKP-NH2
The description is as above. As to the method:
as §1

For assay [9], the target named is T9, Peptide-4 H2N-KTTT-CONH2 (chart ID 21).
T9 peptide: H-KTTT-NH2
The description is as above. The protocol: as §1

Assay [10] deals with T10, Peptide-5 H2N-KTTTG-CONH2 (chart ID 22).
T10 peptide: H-KTTTG-NH2
The description is as above. As to the method:
as §1

Assay [11] deals with T11, a-Dystroglycan glycopeptide Ac-PPT*T*T*T*KKP-HN2 (chart ID 13).
T11 peptide: Ac-PPT(GalNAc)T(GalNAc)T(GalNAc)T(GalNAc)KKP-NH2
The assay is described as above. The protocol:
as §1

Assay [12] deals with T12, MUC1-1R peptide H2N-TSAPDTRDAP-NH2 (chart ID 15).
T12 peptide: H-TSAPDTRDAP-NH2
Described as above. The protocol:
as §1

Assay [13] addresses T13, EA2-R peptide Ac-PTTDSTTPAPTTK-NH2 (chart ID 12).
T13 peptide: Ac-PTTDSTTPAPTTK-NH2
Described as above. The protocol:
as §1

Assay [14] concerns the target T14, MUC5AC glycopeptide H2N-GTTPSPVPT*TSTTSAP-OH (chart ID 10).
T14 peptide: H-GTTPSPVPT(GalNAc)TSTTSAP-OH
Described as above. The protocol:
as §1

For assay [15], the target named is T15, EA2 glycopeptide Ac-PTTDSTT*PAPTTK-NH2 (chart ID 11).
T15 peptide: Ac-PTTDSTT(GalNAc)PAPTTK-NH2
The description is as above. The protocol: as §1

Assay [16] has as its target T13, EA2-R peptide Ac-PTTDSTTPAPTTK-NH2 …. In words: Tn glycopeptide microarray, Alexa Fluor 488 goat anti-human IgG. The protocol:
as §1

Assay [17] concerns the target T14, MUC5AC glycopeptide …. The assay is described as above. The protocol:
as §1

Assay [18] has as its target T7, MUC1-1 glycopeptide H2N-TSAPDT*RDAP-NH2 …. The description is as above. The protocol:
as §1

Assay [19] addresses T8, a-Dystroglycan peptide Ac-PPTTTTKKP-NH2 …. The assay is described as above. As to the method: as §1
For assay [20], the target named is T9, Peptide-4 H2N-KTTT-CONH2 (chart ID 21). The assay is described as above. As to the method:
as §1

For assay [21], the target named is T15, EA2 glycopeptide Ac-PTTDSTT*PAPTTK-NH2 …. Described as above. As to the method: as §1
The target of assay [22] is T10, Peptide-5 H2N-KTTTG-CONH2 (chart ID 22). The assay is described as above. As to the method: as §1
Assay [23] addresses T11, a-Dystroglycan glycopeptide …. The description is as above. As to the method: as §1
For assay [24], the target named is T12, MUC1-1R peptide H2N-TSAPDTRDAP-NH2 …. Described as above. The protocol:
as §1

GalNAc = N-acetylgalactosamine

For orientation: Kd means the free concentration of one partner at which half of the binding sites on the other are occupied at equilibrium, for simple one-to-one binding. A higher Kd goes with weaker binding.

B1: PNA (other)
chain: AETVSFNFNSFSEGNPAINFQGDVTVLSNGNIQLTNLNKVNSVGRVLYAMPVRIWSSATGNVASFLTSFSFEMKDIKDYDPADGIIFFIAPEDTQIPAGSIGGGTLGVSDTKGAGHFVGVEFDTYSNSEYNDPPTDHVGIDVNSVDSVKTVPWNSVSGAVVKVTVIYDSSTKTLSVAVTNDNGDITTIAQVVDLKAKLPERVKFGFSASGSLGGRQIHLIRSWSFTSTLITTTRRSIDNNEKKIMNMASA
modifications: Biotinylated at unspecified positions. The native lectin is a homotetramer; one subunit is given.
notes: also called biotinylated PNA; Peanut agglutinin
Consider B1, for which the binding result in assay [1], in [2], in assay [3], in assay [4] and in assay [5] was “no binding” in each case.

B2: ReBaGs6, recombinant murine IgM anti-Tn antibody (antibody)
heavy: DTMLQQSDAELVKPGASVKMSCKASGYTFTDHAIHWVKQKPEQGLEWIGYVSPGNGDIKYNEKFKGKATLSADKSSSTAYMQLNSLTSEDSAVYFCKRSYGSFDYWGQGTTLTVSSESQSFPNVFPLVSCESPLSDKNLVAMGCLARDFLPSTISFTWNYQNNTEVIQGIRTFPTLRTGGKYLATSQVLLSPKSILEGSDEYLVCKIHYGGKNRDLHVPIPAVAEMNPNVNVFVPPRDGFSGPAPRKSKLICEATNFTPKPITVSWLKDGKLVESGFTTDPVTIENKGSTPQTYKVISTLTISEIDWLNLNVYTCRVDHRGLTFLKNVSSTCAASPSTDILTFTIPPSFADIFLSKSANLTCLVSNLATYETLNISWASQSGEPLETKIKIMESHPNGTFSAKGVASVCVEDWNNRKEFVCTVTHRDLPSPQKKFISKPNEVHKHPPAVYLLPPAREQLNLRESATVTCLVKGFSPADISVQWLQRGQLLPQEKYVTSAPMPEPGAPGFYFTHSILTVTEEEWNSGETYTCVVGHEALPHLVTERTVDKSTGKPTLYNVSLIMSDTGGTCY
light: QIVLTQSPAIMSSSPGEKVALSCSASSSVSYVYWYQQKPGSSPKPWIYRTSNLASGVPARFSGSGSGTSYSLTISSMEAEDAATYYCQQYHSYPFTFGSGTKLEIKRADAAPTVSIFPPSSEQLTSGGASVVCFLNNFYPKDINVKWKIDGSERQNGVLNSWTDQDSKDSTYSMSSTLTLTKDEYERHNSYTCEATHKTSTSPIVKSFNRNEC
notes: Mouse IgM (mu heavy chain, kappa light chain); also called ReGs6; mIgM
With B2, the Kd in assay [6] was determined as 54.3 nM. Also, the binding result in assay [7], in assay [8], in [9], in assay [10], in [11] and in assay [12] was “no binding (tested: 20 or 2 µg/ml (text paragraph 261))” each time.

B3: BaGs6, murine IgM anti-Tn monoclonal antibody from mouse ascites (antibody, V domains shown)
VH: DTMLQQSDAELVKPGASVKMSCKASGYTFTDHAIHWVKQKPEQGLEWIGYVSPGNGDIKYNEKFKGKATLSADKSSSTAYMQLNSLTSEDSAVYFCKRSYGSFDYWGQGTTLTVSS
VL: QIVLTQSPAIMSSSPGEKVALSCSASSSVSYVYWYQQKPGSSPKPWIYRTSNLASGVPARFSGSGSGTSYSLTISSMEAEDAATYYCQQYHSYPFTFGSGTKLEIKR
notes: Natural mouse IgM used as ascites fluid; also called Ca3638; anti-Tn ascites
Take B3: the binding result in assay [13], in assay [14], in assay [7], in [9], in assay [15] and in assay [10] was “no binding (tested: 1:200 dilution (text paragraph 261))” each time. In addition, the binding result in [11] and in assay [12] was “no binding (tested: 1:200 dilution (text paragraph 261))” each time.

B4: Remab6, recombinant human chimeric IgG1 anti-Tn antibody (antibody)
heavy: not shown
light: QIVLTQSPAIMSSSPGEKVALSCSASSSVSYVYWYQQKPGSSPKPWIYRTSNLASGVPARFSGSGSGTSYSLTISSMEAEDAATYYCQQYHSYPFTFGSGTKLEIKRTVAAPSVFIFPPSDEQLKSGTASVVCLLNNFYPREAKVQWKVDNALQSGNSQESVTEQDSKDSTYSLSSTLTLSKADYEKHKVYACEVTHQGLSSPVTKSFNRGEC
notes: Mouse variable regions engineered from BaGs6 with human IgG1 and kappa constant regions; expressed in HEK293 Freestyle cells; also called Remab6-WT; hIgG1
In turn, B4 showed a Kd in [6] of 829 nM. For the same molecule, the binding result in assay [16], in [17], in assay [18], in assay [19], in assay [20] and in assay [21] was “no binding (tested: 5 µg/ml (text paragraph 261))” in each case. In addition, the binding result in [22], in assay [23] and in assay [24] was “no binding (tested: 5 µg/ml (text paragraph 261))” each time.
